According to patent publication US20190031783A1 (AbbVie / Abbott, published 2019):
One block for each binder: values may come before it.

Legend:
[1] = molecular target: T1, purified recombinant human DLL4 extracellular domain (ECD) (human, UniProt Q9NR61 27-529); assay: SPR (Biacore), antibody captured via anti-human Fc, DLL4 ECD injected, 25 C
T1 construct: extracellular domain; also called human DLL4529; huDLL4
Protocol: (§1) For DLL4 binding kinetic measurements the assay buffer was HBS-EPB: 10 mM Hepes, pH7.5, 150 mM NaCl, 3 mM EDTA, 0.005% Tween 20, 0.1 mg/ml BSA (Sigma A7906). For VEGF binding kinetic measurements the assay buffer was HBS-EP+(3N01B): 10 mM Hepes, pH7.5, 300 mM NaCl, 3 mM EDTA, 0.05% Tween 20, 0.1 mg/ml BSA (Sigma A7906). For example, approximately 9000 RU of goat anti-human Fc specific polyclonal antibody (Thermo Fisher Scientific Inc., Rockford, Ill.) diluted in 10 mM sodium acetate (pH 4.5) is directly immobilized across a CM5 research grade biosensor chip using a standard amine coupling kit according to manufacturer's instructions and procedures at 25 ug/ml. Unreacted moieties on the biosensor surface are blocked with ethanolamine. For kinetic analysis, rate equations derived from the 1:1 Langmuir binding model are fitted simultaneously to multiple antigen injections (using global fit analysis) with the use of Scrubber 2 (BioLogic Software), Biacore Biaevaluation 4.0.1 software or Biacore T100 Evaluation software. Purified antibodies are diluted in running buffer for capture across goat anti-human Fc reaction surfaces. Antibodies to be captured as a ligand (1 ug/ml) are injected over reaction matrices at a flow rate of 10 ul/min. During the assay, all measurements are referenced against the capture surface alone (i.e. with no captured antibody). […] The equilibrium dissociation constant KD (M) of the reaction between antibodies and the target antigen is then calculated from the kinetic rate constants by the following formula: KD=Koff/Kₒₙ. Binding is recorded as a function of time and kinetic rate constants are calculated.

[2] = molecular target: human DLL4, full-length, expressed on HEK293G cells (human, UniProt Q9NR61 27-685); assay: cell-based or functional assay
[3] = molecular target: T2, full-length human DLL4 on HEK293G cells (human, UniProt Q9NR61 27-685); assay: cell-based or functional assay
[4] = molecular target: T2, full-length human DLL4 on HEK293G cells; assay: flow cytometry (FACS) on HEK293G cells overexpressing full-length DLL4
Protocol: Stable HEK293G cell lines overexpressing full-length DLL4 were harvested from tissue culture flasks, washed four times and resuspended in phosphate buffered saline (PBS) containing 1% bovine serum albumin and 1 mM CaCl₂ (FACS buffer). 1.5×10⁵ cells were incubated with DVD binding proteins at various concentrations in FACS buffer for 60 minutes on ice. […] Following an incubation on ice (4° C., 60 minutes), cells were washed three times and resuspended in FACS buffer. Fluorescence was measured using a Becton Dickinson FACSCalibur-HTS (Becton Dickinson, San Jose, Calif.). Data was analyzed using Graphpad Prism software and EC₅₀ values were reported as the concentration of antibody to achieve 50% of maximal antibodies binding to DLL4 expressing cells.

[5] = molecular target: T1, purified recombinant human DLL4 …; assay: SPR (Biacore), DVD captured via anti-human Fc, DLL4 ECD injected, 25 C
Protocol: as §1

[6] = molecular target: T1, purified recombinant human DLL4 …; assay: Notch competition ELISA: inhibition of biotin DLL4 ECD binding to coated human Notch-1
Protocol: Plates were then washed 3× with wash buffer (PBS, 0.05% Tween-20) and blocked with 200 μl/well blocking buffer (D-PBS, 1% BSA, 1 mM CaCl₂, 0.05% Tween-20) for 1 hour at 25° C. […] Assay plates were washed after blocking, and incubated with DLL4/antibody mixtures (100 μl/well, 1 hour at 25° C. with shaking). Plates were washed again and 100 μl/well of streptavidin conjugated with HRP (Fitzgerald #65R-S104PHRPx, diluted 1:5,000 in blocking buffer) was added for 1 hour at 25° C. with shaking. After a final wash, plates were developed using 100 μl/well substrate (TMB Sigma #T8665), and the reaction was stopped using 100 μl/well 1N HCl, and the absorbance was read at 450 nm. Data was analyzed using Graphpad Prism software and IC₅₀ values were reported as the concentration of antibody required to achieve 50% reduction of DLL4 binding to Notch1.

Kd [1]: 12 nM
koff [1]: 0.00193 s⁻¹
kon [1]: 160000 M⁻¹ s⁻¹
B1: humanized anti-DLL4 mAb (h1A11.1) (antibody, V domains shown)
VH: EVQLVESGGGLVQPGGSLRLSCAASGFTFSNFPMAWVRQAPGKGLEWVATISSSDGTTYYRDSVKGRFTISRDNAKNSLYLQMNSLRAEDTAVYYCARGYYNSPFAYWGQGTLVTVSS
VL: DIQMTQSPSSLSASVGDRVTITCRASEDIYSNLAWYQQKPGKAPKLLIYDTNNLADGVPSRFSGSGSGTDFTLTISSLQPEDFATYYCQQYNNYPPTFGQGTKLEIKR
notes: Parental humanized anti-DLL4 mAb

IC50 (nM), DLL4 neutralization cellular assay, 0 nM VEGF [2]: > 40 nM
IC50 (nM), DLL4 neutralization cellular assay, 150 nM BSG2 present [2]: > 40 nM
IC50 (nM), DLL4 neutralization cellular assay, 150 nM VEGF present [2]: 4.56 nM
B2: h1A11.1-SL-Av Fab (Fab)
chain 1: EVQLVESGGGLVQPGGSLRLSCAASGFTFSNFPMAWVRQAPGKGLEWVATISSSDGTTYYRDSVKGRFTISRDNAKNSLYLQMNSLRAEDTAVYYCARGYYNSPFAYWGQGTLVTVSSASTKGPEVQLVESGGGLVQPGGSLRLSCAASGYTFTNYGMNWVRQAPGKGLEWVGWINTYTGEPTYAADFKRRFTFSLDTSKSTAYLQMNSLRAEDTAVYYCAKYPHYYGSSHWYFDVWGQGTLVTVSS
chain 2: not shown

Notch Activation IC50 [3]: 7.47 nM
EC50 [4]: 3.75 nM
Kd [5]: 12 nM
B3: h1A11.1-SS-Av (bispecific antibody, human IgG1)
VH: B2 chain 1
VL: DIQMTQSPSSLSASVGDRVTITCRASEDIYSNLAWYQQKPGKAPKLLIYDTNNLADGVPSRFSGSGSGTDFTLTISSLQPEDFATYYCQQYNNYPPTFGQGTKLEIKRTVAAPDIQMTQSPSSLSASVGDRVTITCSASQDISNYLNWYQQKPGKAPKVLIYFTSSLHSGVPSRFSGSGSGTDFTLTISSLQPEDFATYYCQQYSTVPWTFGQGTKVEIKR
notes: DVD-Ig; also called h1A11.1-SS-Av DVD

Notch Activation IC50 [3]: 4.56 nM
EC50 [4]: 5.04 nM
IC50 [6]: 0.79 nM
B4: h1A11.1-LL-Av (bispecific antibody, human IgG1)
VH: EVQLVESGGGLVQPGGSLRLSCAASGFTFSNFPMAWVRQAPGKGLEWVATISSSDGTTYYRDSVKGRFTISRDNAKNSLYLQMNSLRAEDTAVYYCARGYYNSPFAYWGQGTLVTVSSASTKGPSVFPLAPEVQLVESGGGLVQPGGSLRLSCAASGYTFTNYGMNWVRQAPGKGLEWVGWINTYTGEPTYAADFKRRFTFSLDTSKSTAYLQMNSLRAEDTAVYYCAKYPHYYGSSHWYFDVWGQGTLVTVSS
VL: DIQMTQSPSSLSASVGDRVTITCRASEDIYSNLAWYQQKPGKAPKLLIYDTNNLADGVPSRFSGSGSGTDFTLTISSLQPEDFATYYCQQYNNYPPTFGQGTKLEIKRTVAAPSVFIFPPDIQMTQSPSSLSASVGDRVTITCSASQDISNYLNWYQQKPGKAPKVLIYFTSSLHSGVPSRFSGSGSGTDFTLTISSLQPEDFATYYCQQYSTVPWTFGQGTKVEIKR
notes: DVD-Ig; also called h1A11.1-LL-Av DVD

Notch Activation IC50 [3]: 4.59 nM
EC50 [4]: 5 nM
IC50 [6]: 0.76 nM
Kd [5]: 11 nM
B5: h1A11.1-LS-Av (bispecific antibody, human IgG1)
VH: B4 VH
VL: B3 VL
notes: DVD-Ig; also called h1A11.1-LS-Av DVD
